Reference: patent US12194076B2, “Methods and compositions for treating myelofibrosis” (Acceleron Pharma Inc., priority 2016, dated 2025)
Numbering of substitutions follows the chain as printed. In names and notes the source's numbering stands. Blank lines part the entries; values can stand above or below the molecule they belong to.

Tests used:
[1] = system: anemic myelofibrosis patients; details: cited from earlier work
GDF11 [2] = target: T1, GDF11 (Homo sapiens, UniProt O95390); assay: Biacore steady-state affinity of ActRIIB-hFc proteins for GDF11; format: binding; details: compared to counterparts lacking the L79D substitution
T1 sequence (O95390 299-407): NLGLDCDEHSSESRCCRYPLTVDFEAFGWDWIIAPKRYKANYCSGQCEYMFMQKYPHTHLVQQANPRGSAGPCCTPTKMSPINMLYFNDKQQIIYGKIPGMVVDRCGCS
Description: (§1) Affinities of several ligands for ActRIIB(25-131)-hFc and its full-length counterpart ActRIIB(20-134)-hFc were evaluated in vitro with a Biacore™ instrument, and the results are summarized in the table below. Kd values were obtained by steady-state affinity fit due to very rapid association and dissociation of the complex, which prevented accurate determination of kon and koff. ActRIIB(25-131)-hFc bound activin A, activin B, and GDF11 with high affinity.
(§2) The affinity of GDF traps and other ActRIIB-hFc proteins for several ligands was evaluated in vitro with a Biacore™ instrument. Kd values were obtained by steady-state affinity fit due to the very rapid association and dissociation of the complex, which prevented accurate determination of kon and koff.

Activin B = target: T2, Activin B (Homo sapiens, UniProt P09529); assay: Biacore steady-state affinity of ActRIIB-hFc proteins for activin B; format: binding; details: compared to counterparts lacking the L79D substitution
T2 sequence (P09529 293-407): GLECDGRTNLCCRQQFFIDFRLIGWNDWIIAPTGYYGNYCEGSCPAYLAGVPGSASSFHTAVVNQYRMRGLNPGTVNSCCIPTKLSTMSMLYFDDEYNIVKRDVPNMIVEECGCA
Description: as §1, §2

GDF8 [3] = target: T3, GDF8 (Homo sapiens, UniProt O14793); assay: Biacore ligand binding of GDF trap, GDF8
T3 sequence (O14793 267-375): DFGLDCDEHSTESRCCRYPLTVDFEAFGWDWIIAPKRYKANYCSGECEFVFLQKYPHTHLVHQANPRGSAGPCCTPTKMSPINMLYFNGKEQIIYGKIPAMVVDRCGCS
Description: as §2

BMP10 = target: T4, BMP10 (Homo sapiens, UniProt O95393); assay: Biacore ligand binding of GDF trap, BMP10
T4 sequence (O95393 317-424): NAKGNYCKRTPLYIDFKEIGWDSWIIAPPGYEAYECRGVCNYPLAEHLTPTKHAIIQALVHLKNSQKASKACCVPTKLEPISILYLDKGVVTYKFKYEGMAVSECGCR
Description: as §2

Activin A [4] = target: T5, Activin A (Homo sapiens, UniProt P08476); assay: Biacore steady-state affinity of ActRIIB-hFc proteins for activin A; format: binding; details: compared to counterparts lacking the L79D substitution
T5 sequence (P08476 311-426): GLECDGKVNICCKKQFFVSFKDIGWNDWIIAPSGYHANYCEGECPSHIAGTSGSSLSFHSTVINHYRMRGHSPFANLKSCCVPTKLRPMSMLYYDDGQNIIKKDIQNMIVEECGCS
Description: as §1, §2

BMP6 = target: T6, BMP6 (Homo sapiens, UniProt P22004); assay: Biacore ligand binding of GDF trap, BMP6
T6 sequence (P22004 375-513): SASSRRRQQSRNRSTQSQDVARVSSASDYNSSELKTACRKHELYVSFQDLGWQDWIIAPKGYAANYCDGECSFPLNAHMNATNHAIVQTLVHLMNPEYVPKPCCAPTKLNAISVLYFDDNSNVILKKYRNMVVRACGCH
Description: as §2

activin [5] = assay: Affinity/binding of ActRIIB-Fc fusion proteins for activin; details: ActRIIB-Fc fusion protein, position 64 variant
GDF11 [6] = target: T1, GDF11; assay: Affinity/binding of ActRIIB-Fc fusion proteins for GDF11; details: ActRIIB-Fc fusion protein, position 64 variant
GDF11 [7] = target: T1, GDF11; assay: Biacore assay, receptor captured with anti-hFc antibody, GDF11 injected; format: binding; details: receptor captured via anti-hFc antibody
Description: (§3) Binding of certain ActRIIB-Fc proteins and GDF traps to ligands was tested in a Biacore™ assay.
(§4) The ActRIIB-Fc variants or wild-type protein were captured onto the system using an anti-hFc antibody. Ligands were injected and flowed over the captured receptor proteins.

Activin A [8] = target: T5, Activin A; assay: Biacore assay, receptor captured with anti-hFc antibody, activin A injected; format: binding; details: receptor captured via anti-hFc antibody
Description: as §3, §4

GDF8 [9] = target: T3, GDF8; assay: A-204 reporter gene assay, inhibition of GDF-8 activity; format: cell-based; set-up: host or cells: added to A-204 cells (human rhabdomyosarcoma)
GDF8 [10] = target: T3, GDF8; assay: Biacore assay, receptor captured with anti-hFc antibody, GDF8 injected; format: binding; details: receptor captured via anti-hFc antibody
Description: as §3, §4

GDF11 [11] = target: T1, GDF11; assay: A-204 reporter gene assay, inhibition of GDF-11 signaling; format: cell-based; set-up: host or cells: added to A-204 cells (human rhabdomyosarcoma)
Description: (§5) An A-204 reporter gene assay was used to evaluate the effects of ActRIIB-Fc proteins and GDF traps on signaling by GDF-11 and activin A. Cell line: human rhabdomyosarcoma (derived from muscle). Reporter vector: pGL3(CAGA)12 (described in Dennler et al, 1998, EMBO 17: 3091-3100). The CAGA12 motif is present in TGF-beta responsive genes (e.g., PAI-1 gene), so this vector is of general use for factors signaling through SMAD2 and 3.
(§6) Day 1: Split A-204 cells into 48-well plate.
(§7) Day 2: A-204 cells transfected with 10 ug pGL3(CAGA)12 or pGL3(CAGA)12(10 ug)+pRLCMV (1 μg) and Fugene.
(§8) Day 3: Add factors (diluted into medium+0.1% BSA). Inhibitors need to be preincubated with factors for 1 hr before adding to cells. Six hrs later, cells were rinsed with PBS and lysed.
(§9) This is followed by a luciferase assay.
(§10) Activity of ActRIIB-Fc proteins and GDF traps was tested in a cell-based assay as described above. Some variants were tested in different C-terminal truncation constructs. As discussed above, truncations of five or fifteen amino acids caused reduction in activity.

Activin A [12] = target: T5, Activin A; assay: A-204 reporter gene assay, inhibition of activin A signaling; format: cell-based; set-up: host or cells: added to A-204 cells (human rhabdomyosarcoma)
Description: as §5, §6, §7, §8, §9, §10

Serum half-life in rats = format: in vivo
Description: Several variants have been assessed for serum half-life in rats. ActRIIB(20-134)-Fc has a serum half-life of approximately 70 hours. […] Any of the variants tested above, may be combined with the GDF trap molecules.

activin [13] = details: see U.S. Pat. No. 7,842,663; cited from earlier work
GDF11 [14] = target: T1, GDF11; details: see U.S. Pat. No. 7,842,663; cited from earlier work
GDF11 [15] = target: T1, GDF11; details: ligand coupled to the device; reproduced from WO2006/012627; cited from earlier work

Molecule: C#C[C@]1(O)CC[C@H]2[C@@H]3CCC4=Cc5oncc5C[C@]4(C)[C@H]3CC[C@@]21C [danazol]
anemia response rate [1]: around 20%

GDF11 binding, in words (GDF11 [2]): nearly full retention | activin B binding, in words (Activin B): partial loss | binding to GDF8, in words (GDF8 [3]): strong to intermediate | binding to BMP10, in words (BMP10): strong to intermediate | activin A binding, in words (Activin A [4]): pronounced loss | binding to BMP6, in words (BMP6): strong to intermediate
Molecule: ActRIIB(L79D 25-131)-hFc: GDF trap with truncated ActRIIB extracellular domain (residues 25-131, L79D) fused to human Fc, SEQ ID NO: 50, 53

affinity for activin, in words (activin [5]): low nanomolar to high picomolar range | affinity for GDF11, in words (GDF11 [6]): low nanomolar to high picomolar range | Koff (1/s), GDF11 (GDF11 [7]): 0.000113 s⁻¹ | Koff (1/s), Activin A (Activin A [8]): 0.000159 s⁻¹ | Kon (1/Ms), Activin A (Activin A [8]): 5.94e+06 M⁻¹ s⁻¹ | inhibition of GDF-8 activity, in words (GDF8 [9]): potent inhibitor | Koff (1/s), GDF8 (GDF8 [10]): 3.45e-05 s⁻¹ | inhibition of GDF-11 activity, in words (GDF11 [11]): potent inhibitor | inhibition of activin A activity, in words (Activin A [12]): potent inhibitor
B1: ActRIIB(20-134)-hFc: extracellular domain of human ActRIIB (20-134, R64) fused to human Fc with three-glycine linker, SEQ ID NO: 24 (protein)
chain: GRGEAETRECIYYNANWELERTNQSGLERCEGEQDKRLHCYASWRNSSGTIELVKKGCWLDDFNCYDRQECVATEENPQVYFCCCEGNFCNERFTHLPEAGGPEVTYEPPPTAPTGGGTHTCPPCPAPELLGGPSVFLFPPKPKDTLMISRTPEVTCVVVDVSHEDPEVKFNWYVDGVEVHNAKTKPREEQYNSTYRVVSVLTVLHQDWLNGKEYKCKVSNKALPVPIEKTISKAKGQPREPQVYTLPPSREEMTKNQVSLTCLVKGFYPSDIAVEWESNGQPENNYKTTPPVLDSDGSFFLYSKLTVDKSRWQQGNVFSCSVMHEALHNHYTQKSLSLSPGK

B2: ActRIIB(20-134)-Fc: ActRIIB-Fc fusion protein containing amino acids 20-134 of SEQ ID NO: 1 (protein)
chain: GRGEAETRECIYYNANWELERTNQSGLERCEGEQDKRLHCYASWRNSSGTIELVKKGCWLDDFNCYDRQECVATEENPQVYFCCCEGNFCNERFTHLPEAGGPEVTYEPPPTAPT
modifications: Fc fusion partner without entry
serum half-life (Serum half-life in rats): approximately 70 hours

affinity for activin, in words (activin [5]): relatively low affinity | affinity for GDF11, in words (GDF11 [6]): relatively low affinity
B3: A64 20-134: ActRIIB-Fc fusion protein, residues 20-134, alanine at position 64 (protein)
chain: B2 chain with R45A
modifications: Fc fusion partner without entry

B4: ActRIIB(20-119)-Fc: ActRIIB-Fc fusion protein containing amino acids 20-119 of SEQ ID NO: 1 (protein)
chain: GRGEAETRECIYYNANWELERTNQSGLERCEGEQDKRLHCYASWRNSSGTIELVKKGCWLDDFNCYDRQECVATEENPQVYFCCCEGNFCNERFTHLPEA
modifications: Fc fusion, Fc no entry
binding to activin relative to ActRIIB(20-134)-Fc (activin [13]): reduced | binding to GDF11 relative to ActRIIB(20-134)-Fc (GDF11 [14]): reduced

B5: K74A: soluble ActRIIB-Fc variant K74A, data from WO2006/012627 (protein)
chain: SGRGEAETRECIYYNANWELERTNQSGLERCEGEQDKRLHCYASWANSSGTIELVAKGCWLDDFNCYDRQECVATEENPQVYFCCCEGNFCNERFTHLPEA
modifications: left off: a dimerising Fc or GST
GDF11 binding relative to WT (GDF11 [15]): +++++ (~40x increased binding)
